In paper PMC4807281, “Glutathionylation of the Bacterial Hsp70 Chaperone DnaK Provides a Link between Oxidative Stress and the Heat Shock Response” (The Journal of Biological Chemistry, 2016):

Molecular target: Cys15 (UniProt position 15, GTTNSCVAIMD)
Assay: UV-vis
Details: 25 °C; 100 mM KCl, 5 mM MgCl2 (plus KOH added during titration); Buffer B: 50 mM Tris-HCl, pH 7.5, 100 mM KCl, 5 mM MgCl2. The pH was raised by stepwise addition of 6 N KOH in Buffer B.; Reduced (free thiol) DnaK with no nucleotide or peptide added (apo state), 15 μM protein

Chaperone protein DnaK (Hsp70) (Escherichia coli)
pKa: about 12
